The RNAGym collection of RNA variant scans (doi:10.1073/pnas.2313332121)

B1: TPR t1 (parent)
chain: GACCAAUCUGCCCUCAGAGCUCGAGAACAUCUUCGGAUGCAGAGGAGGCAGGCUUCGGUGGCGCGAUAGCGCCAACGUCCUCAACCUCCAAUGCAUCCCACCACAUGAUGAUGCCUGAAGAGCCUUGGUUUUUUG

Variants of: B1
Assay: polymerase ribozyme fitness, log enrichment relative to wild type (log ratio); higher = more active; in vitro selection for triplet polymerase activity
Method in brief: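 In triplicate, a single round of in vitro selection was run on each mutant library, PCR-built and transcribed, covering one subunit of a heterodimeric triplet polymerase ribozyme. Frozen incubation at −7 °C followed annealing with a biotinylated primer, partner subunit and triplets, and extended constructs were then gel-excised, streptavidin-captured and taken through RT-PCR. Fitness is the logarithm of genotype enrichment over wild-type enrichment, from inverse-variance-weighted replicate averages of Illumina-sequenced inputs and outputs. […] only genotypes with ≥10 input reads and ≥1 read per output were kept.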

| Variant | polymerase ribozyme fitness (log ratio) |
| --- | --- |
| G69U A95U G122A | -0.876 |
| G60A G120C G128U | 0.061 |
| A6U C12U C56U A95G | -0.128 |
| C12U A24G G36A | -1.4 |
| G10U G71U | -0.746 |
| G52U C56U U116A | -4.17 |
| G19C G42U G45C C79A C82G | -4.37 |
| G51A C62A A75C U131A | -5.36 |
| A5G G45U G60A C101G U133G | -3.66 |
| C85U C114U | -3.18 |
| C56G C70U U96A U132A | -3.39 |
| A74C A83C | -0.243 |
| C11G A29G G61U C94G | -2.6 |
| G51C C101U | -3.94 |
| G48A G63U A84G G128U | -3.63 |
| G36A C62A | -1.61 |
| A27G G45A G58A G61A A91G | -5.18 |
| C8A C86G | -1.3 |
| C88G G113U U125C U132A | -3.76 |
| A84U C114U U126G | -6.08 |
| G47A G48C G52U C62G C79U | -5.83 |
| G71A U78C C123U U131A | -0.879 |
| C15U A37G C53G U129C | -2.67 |
| C70U U78C A105U G120C U130A | -3.59 |

| Variant | polymerase ribozyme fitness (log ratio) |
| --- | --- |
| G44A C89U C114G G127U U132A | -3.64 |
| G77C U96C G117A | -2.46 |
| G69U C101U U126C | -0.166 |
| C15U C124A | 0.552 |
| A6C C115G | -2.07 |
| C49G A68G G77U | -4.38 |
| C53A C89U U131G | 0.265 |
| A46U C73G A74G U96A | -4.63 |
| C12G U21C A29U G61A C123U U131A | -2.39 |
| C34U U109A U130G | -4.69 |
| A5U C8U C101G | -1.15 |
| C124G U132A | 2.04 |
| C40U G47C U116G U132C | -4.13 |
| C72A U81C U109A G110U U112G A121U U125A | -6.45 |
| C8U U55C C73A C76G A121U | 1.02 |
| C53A G60A A105C | -2.91 |
| C4G C13A G60A A66G C85A A121C | -2.37 |
| G10A G71U U87C | -0.267 |
| C11U U78A U87A C99U C115A | -4.73 |
| A26C C53A U112G | -5.53 |
| C70U U129A | -1.55 |
| C8A C80U C88U U133A | -0.694 |
| A6U A37G G127C G135U | -1.84 |
| A50U U109A A111C G120U A121G | -6.95 |

| Variant | polymerase ribozyme fitness (log ratio) |
| --- | --- |
| A6G U7C C12U G23U C70U C72A U87G | -6.73 |
| G71A C72A | -1.46 |
| A75G A90C C101G | -4.09 |
| C40G G69C C72U C89A | -3.57 |
| C31A A37U C88A A111G U112G U129A | -7.12 |
| G58A C89G | -2.2 |
| C82A | -0.485 |
| C53U G63A C102A A103U | -7.55 |
| A50U U54C U106A G117A | -1.12 |
| A111U U116C | -4.01 |
| A6U G93A | -0.555 |
| G57U U87G | 0.0269 |
| C3U A6U G48A C62U C115U | -2.86 |
| C72G C98A C101U G110U G120U C123G U130G | -6.41 |
| C8U A100U | -0.0529 |
| G71C G93C | -1.98 |
| G10A U59A C62A C89G | -5.2 |
| C64U U131A | 0.0289 |
| C53A U130C | 0.592 |
| C3U A5G C8G C11G C73U C99A U109A G120A | -5.15 |
| A27C G36A G48U A84U G113C G117U C123G | -8.45 |
| A43U G45A U96A A108G C123G | -4.02 |
| G10C C11G U21A | 0.0374 |
| A5U C28U A37U C104U C123G | -3.39 |

| Variant | polymerase ribozyme fitness (log ratio) |
| --- | --- |
| C12U G48A C49G G51A U112A C123A | 0.0276 |
| C56A G69A U133C | -2.92 |
| G52C C70U C76U U106A | -2.68 |
| A90U A118U | -0.274 |
| U78G A103C U130C | -5.75 |
| C12G C62G C115U | -3.7 |
| A43U G48A A100C A111G | -5.16 |
| C70U U109C | -3.68 |
| C12U C97G C104U | -2.92 |
| C98A A121U | -2.52 |
| C31G G69U A91G G120A U129A | -6.61 |
| A37U C64U | -1.67 |
| C56G A66G C88U C115A | -1.71 |
| A41U U92C | -1.21 |
| G48C C79U | -1.34 |
| C13U U130A U133A | -1.2 |
| U7A A50U C82U A111C | -1.72 |
| A6G C12U U30C A108G | 0.259 |
| G63A U78C G93A G122A | -2.28 |
| A5C U125G | -0.516 |
| C12G C49G C72A C89U C102A | -1.91 |
| C13G A50G U106A C124A G127U | 1.19 |
| A29U U96G U130C | -2.74 |
| C11G A50G C97G | -2.97 |

| Variant | polymerase ribozyme fitness (log ratio) |
| --- | --- |
| A41C G117U U131A | -4.61 |
| U7G C53U C88G C104U G113C U130G | -2.37 |
| C13U G93A | -0.513 |
| C8U C86A G113C U130G | -2.85 |
| U106G U112A G120C | -3.09 |
| C8U G23A | -4.81 |
| A29U U112A U131A | -1.03 |
| A6U A46C C49G C82G C89U | -2.2 |
| C8G G47A | -0.0438 |
| A43C G47U G52A C56U | -4.62 |
| C20A G77A G135U | -3.74 |
| A26G C88G C97U C123A | -3.63 |
| A83C C124G | 0.483 |
| G63A U130C | -0.399 |
| A43U U87A G117A | -3.08 |
| C3A C53A C73U | -1.17 |
| C12A A27G G71U G93A | -6.11 |
| C53U G71U U92A A119U C124U | -2.62 |
| U32G C49A G117A | -7.02 |
| A29U C40G G52C G69C A121G U132C | -2.06 |
| C4A C72A C114U C124A | -2.33 |
| C56A C124A | 1.04 |
| G17U A111G U133G | -2.2 |
| A37U C114A A121C U125C | -0.52 |

| Variant | polymerase ribozyme fitness (log ratio) |
| --- | --- |
| G57U C82A C123U | 0.32 |
| C56G C97A G122A | -4.86 |
| C11G U30G U112A | -4.82 |
| C56G A84G | -1.43 |
| C34U U112C | -2.16 |
| A2C C70U A91C C101U U112A U129C | -4.54 |
| G47U C85U C97A C124G | -4.97 |
| U21G G93A C114G | -4.94 |
| A29G C104U U106G | -1.09 |
| G71A U81A A84U | -2.93 |
| A5U C22A G60U | -6.59 |
| C22G A37U C104U U132A | -3.57 |
| C62G G63U | -7.04 |
| G61C U131A | -2.31 |
| U21C G71A G93A | -1.91 |
| G71A U92A C99G G120C | -7.51 |
| G17U G47A C49U C53U C72U | -4 |
| G42C G69U A91U C102U C123U | -0.432 |
| U9A A46G C53G G113U | -1.54 |
| C53U C76U G128A | -2.11 |
| C76G G93A C115G | -4.44 |
| C49G U81C | -3.21 |
| C70A G77A C97A A121U | -5.66 |
| C12U G39C U78A | 0.181 |

| Variant | polymerase ribozyme fitness (log ratio) |
| --- | --- |
| U55A G69U | 0.503 |
| U7G A74U A118U | 0.595 |
| C89G C98U | -1.55 |
| G44A G63A G122A | -2.73 |
| G19U C70G | -5.52 |
| A29G A50C | -1.66 |
| A27G C102U | -3.53 |
| A6U A50U A95C | -1.57 |
| C20U G60U G110A | -3.8 |
| C8G C53A G117A | 0.922 |
| G69C U92A U133G | -4.36 |
| C62U C123A | 0.98 |
| C8A C20A G71U | -2.77 |
| U54G C89A U106A | -2.52 |
| A5G A37C G58U G60U U87A | -1.82 |
| U32C U109G | -4.99 |
| C3G C4A C40U C53A C70U C86A C98U U112A | -5.43 |
| A41G G63A | -1.32 |
| C8G C40U G60C | -0.367 |
| C15A G47U C73A C115A A121C U133C | -5.41 |
| C53G U81G | -1.16 |
| C11G C79G C82A | -1.78 |
| G69A G110U | -3.36 |
